{"source": "paper PMC6088750", "proteins": {"B1": {"name": "Ef CDR-RHD / CoA persulfide reductase (CoAPR) (Enterococcus faecalis OG1RF) (protein)", "chain": "MKIVIIGGVAGGMSAATRLRRLMEDAEIVVMEKGPFVSFANCGLPYYVSGEIAEREQLLVQTPEALKARFNLDVRPHHEVVAIDPIEKVITVKHETEILTEHYDKLILSPGAKPFVPPITGLAEAKNVFSLRNVPDLDQIMTALTPETKRAVVIGAGFIGLEMAENLQKRGLEVTLVEKAPHVLPPLDEEMAAFVKAELSKNNVQVITGQSAVAFEEEGQVIRLEDGQTLASDLTILSVGVQPENTLAVEAGVATGLRGGIVVDEHYQTNQPDIYAVGDAIVVKQQITQEDALISLASPANRQGRQVADVIAGLERKNQGSIGTAIVRVFDLTAASTGLSERAAKAAGLTTAVVHISGKDHAGYYPGATDLQLKLVFHPTTGEIYGAQGIGAKGVDKRIDILATAIKGQLTIFDLPELEFTYAPPFGSAKDPVNMLGYAAMNLVEGLSENVQWYELSNELAKGAVLLDVRNPAERANGQFKNAVSIPLNELRERLEELDKSTEYIVSCHSGLRSYIAERMLKQAGISAKNLDGAFALYRMVKPEELENV"}}, "substrate": "O=S(O)(O)=S", "test": "thiosulfate sulfurtransferase initial rates, Michaelis-Menten fit", "assay_type": "biochemical, Enterococcus faecalis", "details": "RHD domain activity; minimal TST activity", "data": [{"protein": "B1", "values": [{"measurement": "Km", "value": "1000 ± 600", "unit": "µM"}]}]}
